The supplement of paper PMC11246515
± gives the standard deviation of the averaged measurements.

Experiment: total protein half-life in vivo (active degradation + dilution); higher = more stable protein
[1] = E. coli NCM3722 delta-clpP delta-lon delta-hslV, growth: N-lim chemostat, doubling time 6 h
[2] = E. coli NCM3722 delta-clpP, growth: N-lim chemostat, doubling time 6 h
[3] = E. coli NCM3722 delta-hslV, growth: N-lim chemostat, doubling time 6 h
[4] = E. coli NCM3722 delta-lon, growth: N-lim chemostat, doubling time 6 h
[5] = E. coli NCM3722 delta-smpB, growth: N-lim chemostat, doubling time 6 h
[6] = wild type E. coli NCM3722, growth: C-lim chemostat, doubling time 3 h
[7] = wild type E. coli NCM3722, growth: C-lim chemostat, doubling time 6 h
[8] = wild type E. coli NCM3722, growth: C-lim chemostat, doubling time 12 h
[9] = wild type E. coli NCM3722, growth: N-lim chemostat, doubling time 6 h
[10] = wild type E. coli NCM3722, growth: N-lim chemostat, doubling time 12 h
[11] = wild type E. coli NCM3722, growth: P-lim chemostat, doubling time 6 h
[12] = wild type E. coli NCM3722, growth: P-lim chemostat, doubling time 12 h

Row | Sequence | total protein half-life in vivo [1] [h] | total protein half-life in vivo [2] [h] | total protein half-life in vivo [3] [h] | total protein half-life in vivo [4] [h] | total protein half-life in vivo [5] [h] | total protein half-life in vivo [6] [h] | total protein half-life in vivo [7] [h] | total protein half-life in vivo [8] [h] | total protein half-life in vivo [9] [h] | total protein half-life in vivo [10] [h] | total protein half-life in vivo [11] [h] | total protein half-life in vivo [12] [h]
1 | MTRAVKPRRFAIRPIIYASVLSAGVLLCAFSAHADERDQLKSIQADIAAKERAVRQKQQQRASLLAQLKKQEEAISEATRKLRETQNTLNQLNKQIDEMNASIAKLEQQKAAQERSLAAQLDAAFRQGEHTGIQLILSGEESQRGQRLQAYFGYLNQARQETIAQLKQTREEVAMQRAELEEKQSEQQTLLYEQRAQQAKLTQALNERKKTLAGLESSIQQGQQQLSELRANESRLRNSIARAEAAAKARAEREAREAQAVRDRQKEATRKGTTYKPTESEKSLMSRTGGLGAPRGQAFWPVRGPTLHRYGEQLQGELRWKGMVIGASEGTEVKAIADGRVILADWLQGYGLVVVVEHGKGDMSLYGYNQSALVSVGSQVRAGQPIALVGSSGGQGRPSLYFEIRRQGQAVNPQPWLGR | 6.31 ± 0.39 | 6.29 ± 0.37 | 6.76 ± 0.51 | 7.049 ± 0.041 | 6 ± 0.41 | 3.18 ± 0.08 | 5.778 ± 0.045 | 11.3 ± 0.53 | 6.31 ± 0.22 | 13.1 ± 0.39 | 5.92 ± 0.37 | 12.9 ± 0.95
2 | MTRLASRFGAANLIRRDRPLTREELFRVVPSVFSEDKHESRSERYTYIPTISLLDSLQREGFQPFFACQTRVRDPGRREHTKHMLRLRREGQITGKQVPEIILLNSHDGTSSYQMLPGLFRAVCQNGLVCGESFGEVRVPHKGDVVSQVIEGAYEVLGIFDRVEEKRDAMQSLLLPPPAQQALAKAALTYRFGEDHQPVTESQILSPRRWQDESNDLWTTYQRIQENLIKGGLSGRNAKGGRSHTRAVRGIDGDVKLNRALWVMAEALLTQLQ | 5.7 ± 0.74 | – | – | – | – | – | 3.1 | – | 4.67 | – | 3.42 | –
3 | MTRYQHLATLLAERIEQGLYRHGEKLPSVRSLSQEHGVSISTVQQAYQTLETMKLITPQPRSGYFVAQRKAQPPVPPMTRPVQRPVEITQWDQVLDMLEAHSDSSIVPLSKSTPDVEAPSLKPLWRELSRVVQHNLQTVLGYDLLAGQRVLREQIARLMLDSGSVVTADDIIITSGCHNSMSLALMAVCKPGDIVAVESPCYYGSMQMLRGMGVKVIEIPTDPETGISVEALELALEQWPIKGIILVPNCNNPLGFIMPDARKRAVLSLAQRHDIVIFEDDVYGELATEYPRPRTIHSWDIDGRVLLCSSFSKSIAPGLRVGWVAPGRYHDKLMHMKYAISSFNVPSTQMAAATFVLEGHYHRHIRRMRQIYQRNLALYTCWIREYFPCEICITRPKGGFLLWIELPEQVDMVCVARQLCRMKIQVAAGSIFSASGKYRNCLRINCALPLSETYREALKQIGEAVYRAME | 6.94 ± 1 | 3.72 ± 0.22 | 2.89 | – | 2.79 ± 0.039 | 3.04 ± 0.04 | 4.58 ± 0.076 | 7.69 ± 0.59 | 3.09 ± 0.11 | – | 3.19 ± 0.25 | 6.91 ± 3.5
4 | MTSLVSLENVSVSFGQRRVLSDVSLELKPGKILTLLGPNGAGKSTLVRVVLGLVTPDEGVIKRNGKLRIGYVPQKLYLDTTLPLTVNRFLRLRPGTHKEDILPALKRVQAGHLINAPMQKLSGGETQRVLLARALLNRPQLLVLDEPTQGVDVNGQVALYDLIDQLRRELDCGVLMVSHDLHLVMAKTDEVLCLNHHICCSGTPEVVSLHPEFISMFGPRGAEQLGIYRHHHNHRHDLQGRIVLRRGNDRS [P0A9X1] | 5.6 ± 0.31 | 5.12 ± 0.41 | 2.88 ± 1.1 | 2 ± 0.1 | 4.75 ± 2.8 | 2.63 ± 0.088 | 4.39 ± 0.11 | 6.41 ± 2.1 | 2.6 ± 0.37 | 5.01 ± 2 | 4.12 ± 0.059 | 7.83 ± 2
5 | MTSPNILLTRIDNRLVHGQVGVTWTSTIGANLLVVVDDVVANDDIQQKLMGITAETYGFGIRFFTIEKTINVIGKAAPHQKIFLICRTPQTVRKLVEGGIDLKDVNVGNMHFSEGKKQISSKVYVDDQDLTDLRFIKQRGVNVFIQDVPGDQKEQIPD | 5.94 ± 1 | 3.82 ± 0.62 | 4.08 ± 0.26 | – | 4.01 ± 0.37 | 3.52 ± 0.3 | 5.07 ± 0.32 | 6.95 ± 0.34 | 3.67 | 6.28 ± 0.71 | 4.28 ± 1.7 | 11 ± 0.5
6 | MTTDQHQEILRTEGLSKFFPGVKALDNVDFSLRRGEIMALLGENGAGKSTLIKALTGVYHADRGTIWLEGQAISPKNTAHAQQLGIGTVYQEVNLLPNMSVADNLFIGREPKRFGLLRRKEMEKRATELMASYGFSLDVREPLNRFSVAMQQIVAICRAIDLSAKVLILDEPTASLDTQEVELLFDLMRQLRDRGVSLIFVTHFLDQVYQVSDRITVLRNGSFVGCRETCELPQIELVKMMLGRELDTHALQRAGRTLLSDKPVAAFKNYGKKGTIAPFDLEVRPGEIVGLAGLLGSGRTETAEVIFGIKPADSGTALIKGKPQNLRSPHQASVLGIGFCPEDRKTDGIIAAASVRENIILALQAQRGWLRPISRKEQQEIAERFIRQLGIRTPSTEQPIEFLSGGNQQKVLLSRWLLTRPQFLILDEPTRGIDVGAHAEIIRLIETLCADGLALLVISSELEELVGYADRVIIMRDRKQVAEIPLAELSVPAIMNAIAA [Q6BEX0] | 4.28 | 6.33 ± 1.2 | 4.45 | – | 5.51 | 3 ± 0.35 | 6.5 ± 0.63 | 10.7 ± 0.33 | – | 9.4 | 5.93 ± 0.44 | 11 ± 1.1
